How the values were obtained:
[1] = target: KLB (β-klotho) on KLB only expressing cells (UniProt Q86Z14); assay: cell-based or functional assay
[2] = target: KLB/FGFR4 on KLB/FGFR4 expressing cells (UniProt Q86Z14); assay: cell-based or functional assay
Sequence of KLB/FGFR4 on KLB/FGFR4 expressing cells (Q86Z14 whole entry, chain 1 of 2): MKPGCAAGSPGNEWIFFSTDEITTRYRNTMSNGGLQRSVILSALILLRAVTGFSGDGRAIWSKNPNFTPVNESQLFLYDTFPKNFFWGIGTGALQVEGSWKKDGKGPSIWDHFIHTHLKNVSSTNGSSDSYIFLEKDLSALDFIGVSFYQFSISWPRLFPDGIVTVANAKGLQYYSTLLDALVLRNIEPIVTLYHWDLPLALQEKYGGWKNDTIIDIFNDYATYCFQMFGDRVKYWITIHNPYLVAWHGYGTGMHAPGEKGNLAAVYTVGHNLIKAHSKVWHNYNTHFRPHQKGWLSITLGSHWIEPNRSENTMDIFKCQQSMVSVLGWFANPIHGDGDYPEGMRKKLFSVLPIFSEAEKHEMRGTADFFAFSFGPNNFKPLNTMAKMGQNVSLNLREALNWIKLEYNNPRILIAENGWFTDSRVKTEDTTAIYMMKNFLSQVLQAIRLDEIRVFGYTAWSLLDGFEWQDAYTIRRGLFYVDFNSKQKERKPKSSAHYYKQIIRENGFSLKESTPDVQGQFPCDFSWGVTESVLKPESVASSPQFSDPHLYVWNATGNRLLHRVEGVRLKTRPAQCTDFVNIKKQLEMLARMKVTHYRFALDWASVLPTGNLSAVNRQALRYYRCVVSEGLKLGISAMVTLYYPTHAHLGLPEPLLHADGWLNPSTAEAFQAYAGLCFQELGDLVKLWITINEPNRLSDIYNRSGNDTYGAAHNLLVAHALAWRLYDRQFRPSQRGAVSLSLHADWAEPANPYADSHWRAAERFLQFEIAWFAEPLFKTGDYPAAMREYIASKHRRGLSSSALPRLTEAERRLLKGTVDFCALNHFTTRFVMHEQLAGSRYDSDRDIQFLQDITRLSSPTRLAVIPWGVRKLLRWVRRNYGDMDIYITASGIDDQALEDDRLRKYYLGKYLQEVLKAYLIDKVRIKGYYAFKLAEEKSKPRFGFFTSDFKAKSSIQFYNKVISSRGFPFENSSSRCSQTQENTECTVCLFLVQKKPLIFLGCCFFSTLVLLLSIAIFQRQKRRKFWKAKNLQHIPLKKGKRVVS
Sequence of KLB/FGFR4 on KLB/FGFR4 expressing cells (P22455 22-802 limits assumed, chain 2 of 2, further chain): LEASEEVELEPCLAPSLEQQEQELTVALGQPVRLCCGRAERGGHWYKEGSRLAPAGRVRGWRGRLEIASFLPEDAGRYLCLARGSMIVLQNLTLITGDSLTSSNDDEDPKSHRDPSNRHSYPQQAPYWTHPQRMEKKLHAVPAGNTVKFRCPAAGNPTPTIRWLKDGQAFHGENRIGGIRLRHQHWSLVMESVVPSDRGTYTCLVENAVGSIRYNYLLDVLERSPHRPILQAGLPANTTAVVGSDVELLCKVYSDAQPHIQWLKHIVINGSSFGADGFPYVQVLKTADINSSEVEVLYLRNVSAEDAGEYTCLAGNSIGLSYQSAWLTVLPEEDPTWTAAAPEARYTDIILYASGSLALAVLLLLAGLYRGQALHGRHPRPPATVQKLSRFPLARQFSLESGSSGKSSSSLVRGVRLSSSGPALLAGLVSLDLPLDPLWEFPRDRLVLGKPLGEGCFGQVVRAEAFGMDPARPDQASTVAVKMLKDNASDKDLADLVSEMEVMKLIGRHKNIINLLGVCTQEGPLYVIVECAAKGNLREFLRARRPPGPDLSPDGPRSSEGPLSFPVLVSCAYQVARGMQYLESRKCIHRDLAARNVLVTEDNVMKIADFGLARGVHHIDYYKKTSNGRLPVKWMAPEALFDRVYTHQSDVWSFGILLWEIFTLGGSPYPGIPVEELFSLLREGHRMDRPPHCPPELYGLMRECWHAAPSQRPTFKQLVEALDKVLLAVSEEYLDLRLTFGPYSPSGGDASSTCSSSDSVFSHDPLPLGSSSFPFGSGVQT

Sequence of KLB (β-klotho) on KLB only expressing cells (Q86Z14 whole entry): as the sequence (Q86Z14 whole entry, chain 1 of 2) above

Substance	pERK functional assay, fold increase of pERK at 3000 nM [1] [fold]	pERK functional assay, fold increase in pERK at 3000 nM [2] [fold]
FGF-19 (from UniProt O95750 25-216) (ligand)	2	
FGF-21 (native / wild type human Fibroblast Growth Factor-21) (from UniProt Q9NSA1 29-209) (ligand)	2	< 2
Mutant FGF21-GalNAc-SA-PEG-20 kDa (BIO89-100) (from UniProt Q9NSA1 29-209) (ligand)		< 2
